Values quoted from earlier work in patent US9486409B2, “Peptide nanoparticles and uses therefor” (Anterios, Inc., priority 2006, dated 2016).

Details: unmodified peptide, prior studies (Katayama et al.)

Substance: KTTKS (peptide that may promote extra-cellular matrix production) [unmodified pentapeptide known to promote extra-cellular matrix production]
- penetration of intact skin: cannot penetrate the intact skin without chemical modification
